Measurements published in paper PMC11098746 (2024).
No end group written: not given here.

B1: ADP316 (protein)
chain: MAAAGAAVARSPGIGAGPALRARRSPPPRAARLPRLLVLLAAAAVGPGAGGAARLYRAGEDAVWVLDSGSVRGATANSSAAWLVQFYSSWCGHCIGYAPTWRALAGDVRDWASAIRVAALDCMEEKNQAVCHDYDIHFYPTFRYFKAFTKEFTTGENFKGPDRELRTVRQTMIDFLQNHTEGSRPPACPRLDPIQPSDVLSLLDNRGSHYVAIVFESNSSYLGREVILDLIPYESIVVTRALDGDKAFLEKLGVSSVPSCYLIYPNGSHGLINVVKPLRAFFSSYLKSLPDVRKKSLPLPEKPHKEENSEIVVWREFDKSKLYTVDLESGLHYLLRVELAAHKSLAGAELKTLKDFVTVLAKLFPGRPPVKKLLEMLQEWLASLPLDRIPYNAVLDLVNNKMRISGIFLTNHIKWVGCQGSRSELRGYPCSLWKLFHTLTVEASTHPDALVGTGFEDDPQAVLQTMRRYVHTFFGCKECGEHFEEMAKESMDSVKTPDQAILWLWKKHNMVNGRLAGHLSEDPRFPKLQWPTPDLCPACHEEIKGLASWDEGHVLTFLKQHYGRDNLLDTYSADQGDSSEGGTLARGEEEEKRLTPPEVSHGDRDTQSVRPPGALGPRPALPESLHHSLDGKLQSLDGPGAHKEVGGAAPFLGVDFSSLDM
modifications: bait human Fc-tagged dimer
B2: ADP383 (protein)
chain: GLKPSCAKEVKSCKGRCFERTFGNCRCDAACVELGNCCLDYQETCIEPEHIWTCNKFRCGEKRLTRSLCACSDDCKDKGDCCINYSSVCQGEKSWVEEPCESINEPQCPAGFETPPTLLFSLDGFRAEYLHTWGGLLPVISKLKKCGTYTKNMRPVYPTKTFPNHYSIVTGLYPESHGIIDNKMYDPKMNASFSLKSKEKFNPEWYKGEPIWVTAKYQGLKSGTFFWPGSDVEINGIFPDIYKMYNGSVPFEERILAVLQWLQLPKDERPHFYTLYLEEPDSSGHSYGPVSSEVIKALQRVDGMVGMLMDGLKELNLHRCLNLILISDHGMEQGSCKKYIYLNKYLGDVKNIKVIYGPAARLRPSDVPDKYYSFNYEGIARNLSCREPNQHFKPYLKHFLPKRLHFAKSDRIEPLTFYLDPQWQLALNPSERKYCGSGFHGSDNVFSNMQALFVGYGPGFKHGIEADTFENIEVYNLMCDLLNLTPAPNNGTHGSLNHLLKNPVYTPKHPKEVHPLVQCPFTRNPRDNLGCSCNPSILPIEDFQTQFNLTVAEEKIIKHETLPYGRPRVLQKENTICLLSQHQFMSGYSQDILMPLWTSYTVDRNDSFSTEDFSNCLYQDFRIPLSPVHKCSFYKNNTKVSYGFLSPPQLNKNSSGIYSEALLTTNIVPMYQSFQVIWRYFHDTLLRKYAEERNGVNVVSGPVFDFDYDGRCDSLENLRQKRRVIRNQEILIPTHFFIVLTSCKDTSQTPLHCENLDTLAFILPHRTDNSESCVHGKHDSSWVEELLMLHRARITDVEHITGLSFYQQRKEPVSDILKLKTHLPTFSQED
modifications: bait human Fc-tagged dimer
B3: ADP333 (protein)
chain: MASVVLPSGSQCAAAAAAAAPPGLRLRLLLLLFSAAALIPTGDGQNLFTKDVTVIEGEVATISCQVNKSDDSVIQLLNPNRQTIYFRDFRPLKDSRFQLLNFSSSELKVSLTNVSISDEGRYFCQLYTDPPQESYTTITVLVPPRNLMIDIQKDTAVEGEEIEVNCTAMASKPATTIRWFKGNTELKGKSEVEEWSDMYTVTSQLMLKVHKEDDGVPVICQVEHPAVTGNLQTQRYLEVQYKPQVHIQMTYPLQGLTREGDALELTCEAIGKPQPVMVTWVRVDDEMPQHAVLSGPNLFINNLNKTDNGTYRCEASNIVGKAHSDYMLYVYDPPTTIPPPTT
modifications: bait human Fc-tagged dimer
B4: ADP147 (protein)
chain: MAACGRVRRMFRLSAALHLLLLFAAGAEKLPGQGVHSQGQGPGANFVSFVGQAGGGGPAGQQLPQLPQSSQLQQQQQQQQQQQQPQPPQPPFPAGGPPARRGGAGAGGGWKLAEEESCREDVTRVCPKHTWSNNLAVLECLQDVREPENEISSDCNHLLWNYKLNLTTDPKFESVAREVCKSTITEIKECADEPVGKGYMVSCLVDHRGNITEYQCHQYITKMTAIIFSDYRLICGFMDDCKNDINILKCGSIRLGEKDAHSQGEVVSCLEKGLVKEAEEREPKIQVSELCKKAILRVAELSSDDFHLDRHLYFACRDDRERFCENTQAGEGRVYKCLFNHKFEESMSEKCREALTTRQKLIAQDYKVSYSLAKSCKSDLKKYRCNVENLPRSREARLSYLLMCLESAVHRGRQVSSECQGEMLDYRRMLMEDFSLSPEIILSCRGEIEHHCSGLHRKGRTLHCLMKVVRGEKGNLGMNCQQALQTLIQETDPGADYRIDRALNEACESVIQTACKHIRSGDPMILSCLMEHLYTEKMVEDCEHRLLELQYFISRDWKLDPVLYRKCQGDASRLCHTHGWNETSEFMPQGAVFSCLYRHAYRTEEQGRRLSRECRAEVQRILHQRAMDVKLDPALQDKCLIDLGKWCSEKTETGQELECLQDHLDDLVVECRDIVGNLTELESEDIQIEALLMRACEPIIQNFCHDVADNQIDSGDLMECLIQNKHQKDMNEKCAIGVTHFQLVQMKDFRFSYKFKMACKEDVLKLCPNIKKKVDVVICLSTTVRNDTLQEAKEHRVSLKCRRQLRVEELEMTEDIRLEPDLYEACKSDIKNFCSAVQYGNAQIIECLKENKKQLSTRCHQKVFKLQETEMMDPELDYTLMRVCKQMIKRFCPEADSKTMLQCLKQNKNSELMDPKCKQMITKRQITQNTDYRLNPMLRKACKADIPKFCHGILTKAKDDSELEGQVISCLKLRYADQRLSSDCEDQIRIIIQESALDYRLDPQLQLHCSDEISSLCAEEAAAQEQTGQVEECLKVNLLKIKTELCKKEVLNMLKESKADIFVDPVLHTACALDIKHHCAAITPGRGRQMSCLMEALEDKRVRLQPECKKRLNDRIEMWSYAAKVAPADGFSDLAMQVMTSPS
modifications: bait human Fc-tagged dimer
B5: ADP121 (protein)
chain: MGTLLLVLWLATRGSALYFHIGETEKKCFIEEIPDETMVIGNYRTQLYDKQREEYQPATPGLGMFVEVKDPEDKVILARQYGSEGRFTFTSHTPGEHQICLHSNSTKFSLFAGGMLRVHLDIQVGEHANDYAEIAAKDKLSELQLRVRQLVEQVEQIQKEQNYQRWREERFRQTSESTNQR
modifications: bait human Fc-tagged dimer
B6: ADP096 (protein)
chain: GIQYQTRSPSVCLSEACVSVTSSILSSMDPTVDPCHDFFSYACGGWIKANPVPDGHSRWGTFSNLWEHNQAIIKHLLENSTASVSEAERKAQVYYRACMNETRIEELRAKPLMELIERLGGWNITGPWAKDNFQDTLQVVTAHYRTSPFFSVYVSADSKNSNSNVIQVDQSGLGLPSRDYYLNKTENEKVLTGYLNYMVQLGKLLGGGDEEAIRPQMQQILDFETALANITIPQEKRRDEELIYHKVTAAELQTLAPAINWLPFLNTIFYPVEINESEPIVVYDKEYLEQISTLINTTDRCLLNNYMIWNLVRKTSSFLDQRFQDADEKFMEVMYGTKKTCLPRWKFCVSDTENNLGFALGPMFVKATFAEDSKSIATEIILEIKKAFEESLSTLKWMDEETRKSAKEKADAIYNMIGYPNFIMDPKELDKVFNDYTAVPDLYFENAMRFFNFSWRVTADQLRKAPNRDQWSMTPPMVNAYYSPTKNEIVFPAGILQAPFYTRSSPKALNFGGIGVVVGHELTHAFDDQGREYDKDGNLRPWWKNSSVEAFKRQTECMVEQYSNYSVNGEPVNGRHTLGENIADNGGLKAAYRAYQNWVKKNGAEHSLPTLGLTNNQLFFLGFAQVWCSVRTPESSHEGLITDPHSPSRFRVIGSLSNSKEFSEHFRCPPGSPMNPPHKCEVW
modifications: bait human Fc-tagged dimer
B7: ADP359 (protein)
chain: MAAEWASRFWLWATLLIPAAAVYEDQVGKFDWRQQYVGKVKFASLEFSPGSKKLVVATEKNVIAALNSRTGEILWRHVDKGTAEGAVDAMLLHGQDVITVSNGGRIMRSWETNIGGLNWEITLDSGSFQALGLVGLQESVRYIAVLKKTTLALHHLSSGHLKWVEHLPESDSIHYQMVYSYGSGVVWALGVVPFSHVNIVKFNVEDGEIVQQVRVSTPWLQHLSGACGVVDEAVLVCPDPSSRSLQTLALETEWELRQIPLQSLDLEFGSGFQPRVLPTQPNPVDASRAQFFLHLSPSHYALLQYHYGTLSLLKNFPQTALVSFATTGEKTVAAVMACRNEVQKSSSSEDGSMGSFSEKSSSKDSLACFNQTYTINLYLVETGRRLLDTTITFSLEQSGTRPERLYIQVFLKKDDSVGYRALVQTEDHLLLFLQQLAGKVVLWSREESLAEVVCLEMVDLPLTGAQAELEGEFGKKADGLLGMFLKRLSSQLILLQAWTSHLWKMFYDARKPRSQIKNEINIDTLARDEFNLQKMMVMVTASGKLFGIESSSGTILWKQYLPNVKPDSSFKLMVQRTTAHFPHPPQCTLLVKDKESGMSSLYVFNPIFGKWSQVAPPVLKRPILQSLLLPVMDQDYAKVLLLIDDEYKVTAFPATRNVLRQLHELAPSIFFYLVDAEQGRLCGYRLRKDLTTELSWELTIPPEVQRIVKVKGKRSSEHVHSQGRVMGDRSVLYKSLNPNLLAVVTESTDAHHERTFIGIFLIDGVTGRIIHSSVQKKAKGPVHIVHSENWVVYQYWNTKARRNEFTVLELYEGTEQYNATAFSSLDRPQLPQVLQQSYIFPSSISAMEATITERGITSRHLLIGLPSGAILSLPKALLDPRRPEIPTEQSREENLIPYSPDVQIHAERFINYNQTVSRMRGIYTAPSGLESTCLVVAYGLDIYQTRVYPS
modifications: bait human Fc-tagged dimer
B8: ADP273 (protein)
chain: RGSCQACGDSVLVVSEDVNYEPDLDFHQGRLYWSDLQAMFLQFLGEGRLEDTIRQTSLRERVAGSAGMAALTQDIRAALSRQKLDHVWTDTHYVGLQFPDPAHPNTLHWVDEAGKVGEQLPLEDPDVYCPYSAIGNVTGELVYAHYGRPEDLQDLRARGVDPVGRLLLVRVGVISFAQKVTNAQDFGAQGVLIYPEPADFSQDPPKPSLSSQQAVYGHVHLGTGDPYTPGFPSFNQTQFPPVASSGLPSIPAQPISADIASRLLRKLKGPVAPQEWQGSLLGSPYHLGPGPRLRLVVNNHRTSTPINNIFGCIEGRSEPDHYVVIGAQRDAWGPGAAKSAVGTAILLELVRTFSSMVSNGFRPRRSLLFISWDGGDFGSVGSTEWLEGYLSVLHLKAVVYVSLDNAVLGDDKFHAKTSPLLTSLIESVLKQVDSPNHSGQTLYEQVVFTNPSWDAEVIRPLPMDSSAYSFTAFVGVPAVEFSFMEDDQAYPFLHTKEDTYENLHKVLQGRLPAVAQAVAQLAGQLLIRLSHDRLLPLDFGRYGDVVLRHIGNLNEFSGDLKARGLTLQWVYSARGDYIRAAEKLRQEIYSSEERDERLTRMYNVRIMRVEFYFLSQYVSPADSPFRHIFMGRGDHTLGALLDHLRLLRSNSSGTPGATSSTGFQESRFRRQLALLTWTLQGAANALSGDVWNIDNNF
modifications: bait human Fc-tagged dimer

biological target: Circumsporozoite protein (CSP) (Plasmodium falciparum (isolate 3D7), UniProt Q7K740); experiment: AVEXIS screen signal:noise (double-corrected)
Sequence (Q7K740 19-374): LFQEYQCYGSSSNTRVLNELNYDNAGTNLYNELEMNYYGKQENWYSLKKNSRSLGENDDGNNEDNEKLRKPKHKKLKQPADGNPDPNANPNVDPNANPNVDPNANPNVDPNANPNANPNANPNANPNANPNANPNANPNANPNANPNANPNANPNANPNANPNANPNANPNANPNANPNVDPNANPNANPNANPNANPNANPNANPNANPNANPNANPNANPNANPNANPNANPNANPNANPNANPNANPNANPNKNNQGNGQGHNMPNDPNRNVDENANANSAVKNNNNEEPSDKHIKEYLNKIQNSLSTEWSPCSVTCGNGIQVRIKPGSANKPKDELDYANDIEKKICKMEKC

In order of rising binding score:
1. B7  0.432
2. B6  0.507
3. B8  0.72
4. B2  0.856
5. B5  0.979
6. B4  0.989
7. B1  1.06
8. B3  1.11
9. MASLGHILVFCVGLLTMAKAESPKEHDPFTYDYQS (also: human Fc-tagged dimer) [ADP327]  1.89
